Data on one molecule can be found in patent US20220153854A1 (Ablynx, published 2022).

One experiment concerns the target rhesus IL-13 (rhesus monkey, UniProt Q864V6 19-132, limits assumed). Description: cell-based or functional assay.
The target of experiment [1] is T1, cyno IL-13 (cynomolgus monkey, UniProt Q0PW92 21-132). Description: cell-based or functional assay.
Experiment [2] concerns the target T2, human IL-13 (human, UniProt P35225 35-146, limits assumed). Description: cell-based or functional assay.
Another experiment deals with T3, human serum albumin (human, UniProt P02768 25-609).
T3 construct: also called HSA; HAS
T3 sequence (P02768 25-609 limits assumed): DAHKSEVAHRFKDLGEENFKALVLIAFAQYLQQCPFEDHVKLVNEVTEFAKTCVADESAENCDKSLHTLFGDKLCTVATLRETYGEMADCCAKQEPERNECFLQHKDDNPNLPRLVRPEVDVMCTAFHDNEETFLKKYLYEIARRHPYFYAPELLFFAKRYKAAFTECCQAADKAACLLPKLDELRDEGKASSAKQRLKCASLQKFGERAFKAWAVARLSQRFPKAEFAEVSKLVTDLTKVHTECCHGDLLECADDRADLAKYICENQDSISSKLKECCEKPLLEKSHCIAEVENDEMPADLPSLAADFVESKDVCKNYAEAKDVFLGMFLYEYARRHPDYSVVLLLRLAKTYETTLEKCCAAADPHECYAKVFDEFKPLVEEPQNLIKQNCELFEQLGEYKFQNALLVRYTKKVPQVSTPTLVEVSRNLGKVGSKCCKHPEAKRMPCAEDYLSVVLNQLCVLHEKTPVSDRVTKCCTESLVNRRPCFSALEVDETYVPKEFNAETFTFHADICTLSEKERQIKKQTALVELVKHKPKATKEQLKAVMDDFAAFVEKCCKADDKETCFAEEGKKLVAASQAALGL
The experiment is described as follows: Gyrolab in-solution affinity, 2 h incubation; 95% CI 7.7-9.0 nM. The procedure:
(§1) Under receptor-controlled measurements a serial dilution of OX40L (ranging from 1.3 μM-0.031 μM), IL-13 (ranging from 0.1 μM-0.25 fM), or serum albumin (ranging from 100 μM-3.2 μM) and a fixed amount of ISVD construct F027100187 (5 nM in case of OX40L, […] in case of IL-13 and 30 nM in case of HSA and cyno SA) were mixed to allow interaction and incubated for either 24 or 48 hours (in case of OX40L and IL-13) or 2 hours (in case of serum albumin) to reach equilibrium.
(§2) Biotinylated human OX40L/IL-13/serum albumin was captured in the microstructures of a Gyrolab Bioaffy 1000 CD, which contains columns of beads and was used as a molecular probe to capture free F027100187 from the equilibrated solution. The mixture of OX40L/IL13/serum albumin and F027100187 (containing free OX40UIL-13/serum albumin, free F027100187 and OX40L/IL13/serum albumin—F027100187 complexes) was allowed to flow through the beads, and a small percentage of free F027100187 was captured, which is proportional to the free ISVD construct concentration. A fluorescently labeled anti-ISVD antibody, ABH0086-Alexa647, was then injected to label any captured F027100187 and after rinsing away excess of fluorescent probe, the change in fluorescence was determined. Fitting of the dilution series was done using Gyrolab Analysis software, where KD- and receptor-controlled curves were analyzed to determine the KD value.

Experiment [3] addresses T4, membrane bound cyno OX40L on CHO-KI cells (cynomolgus monkey, UniProt G7NVH7 1-183).
T4 construct: whole, on cells; also called CHO-KI cells expressing cyno OX40L
T4 sequence: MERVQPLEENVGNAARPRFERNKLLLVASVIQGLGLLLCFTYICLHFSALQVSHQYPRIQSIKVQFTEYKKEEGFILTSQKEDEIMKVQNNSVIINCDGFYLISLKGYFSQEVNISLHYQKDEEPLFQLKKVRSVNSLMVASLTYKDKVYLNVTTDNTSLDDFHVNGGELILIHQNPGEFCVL
The experiment is described as follows: flow cytometry on fixed CHO-KI cells expressing cyno OX40L, 48 h incubation. The method, then:
(§3) Briefly, cells were fixed with 4% paraformaldehyde and 0.1% Glutaraldehyde in PBS, seeded at a density of 1×10⁴ cells/well and incubated with a dilution series of ISVD F027100187 or reference compound anti-hOX40L mAb, named Comparator 3, starting from 100 nM […] 0.5 μM, for 48 hours at room temperature. Comparator 3 is a standard conventional monoclonal antibody directed against human OX40L, which is used as a reference throughout the Examples 1 to 12 described herein. Cells were washed 3 times and subsequently incubated with an anti-VHH mAb (ABH00119) for 30 min at 4° C., washed again, and incubated for 30 min at 4° C. with a goat anti-mouse PE or FITC labeled antibody. Samples were washed and resuspended in FACS Buffer (D-PBS with 10% FBS and 0.05% sodium azide supplemented with 5 nM TOPRO3). Cell suspensions were then analyzed on an iQuescreener. EC50 values were calculated using GraphPad Prism.

The target in experiment [4] is T2, human IL-13. The experiment is described as follows: flow cytometry on CHO-KI cells expressing human OX40L loaded with 100 nM F027100187, dilution series of soluble human IL-13 in the presence of 30 uM HSA (bridging / simultaneous binding; x axis printed as 'Concentration human IL-13-Fc (M)', text says biotinylated IL-13). The procedure:
Using flow cytometry, it was determined whether ISVD construct F0271000187 can bind simultaneously to recombinant soluble hIL-13 and cell membrane bound hOX40L. […] Subsequently the mixture was incubated with a dilution series of biotinylated IL-13 starting from 500 nM down to […], and incubated for 30 min at 4° C., in the presence of 30 μM HSA. Cells were washed 3 times and subsequently incubated with PE-labelled […] for 30 min at 4° C., washed again. Samples were washed and resuspended in FACS Buffer (D-PBS with 10% FBS and 0.05% sodium azide supplemented with 5 nM TOPRO3). Cell suspensions were then analyzed on a iQuescreener.
A general note: Flow cytometry measures light scatter and fluorescence of single cells or particles in a stream.

The target of experiment [5] is T1, cyno IL-13. The experiment is described as follows: Gyrolab in-solution affinity, 48 h incubation; 95% CI 4.7-7.1 pM. The procedure: as §1, §2
In experiment [6] the target is T5, membrane bound human OX40L on CHO-KI cells (human, UniProt P23510 1-183).
T5 construct: whole, on cells; also called CHO-KI cells expressing human OX40L
T5 sequence (looked up): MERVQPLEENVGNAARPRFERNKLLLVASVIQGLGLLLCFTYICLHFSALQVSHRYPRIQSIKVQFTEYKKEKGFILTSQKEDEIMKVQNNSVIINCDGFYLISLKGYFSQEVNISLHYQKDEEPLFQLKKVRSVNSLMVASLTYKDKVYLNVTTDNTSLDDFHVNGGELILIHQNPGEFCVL
The experiment is described as follows: flow cytometry on fixed CHO-KI cells expressing human OX40L, 48 h incubation. The procedure:
as §3

Experiment [7] has as its target T4, membrane bound cyno OX40L on CHO-KI …. Description: cell-based or functional assay.
The target of experiment [8] is T5, membrane bound human OX40L on CHO-KI …. Description: cell-based or functional assay.
A further experiment concerns the target T6, cyno serum albumin (cynomolgus monkey).
T6 construct: also called cyno SA; cynomolgus monkey serum albumin
The experiment is described as follows: Gyrolab in-solution affinity, 2 h incubation; 95% CI 9.7-10.7 nM. The procedure: as §1, §2

The target of another experiment is T7, cyno OX40L (cynomolgus monkey, UniProt G7NVH7 51-183).
T7 construct: also called cyOX40L; cynomolgus monkey OX40L
T7 sequence: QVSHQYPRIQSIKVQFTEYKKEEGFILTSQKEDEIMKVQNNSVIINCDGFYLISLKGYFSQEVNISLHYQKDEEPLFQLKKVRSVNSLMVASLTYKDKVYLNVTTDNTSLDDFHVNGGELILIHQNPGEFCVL
Description: Gyrolab in-solution affinity, 24 h incubation; 95% CI 174-218 pM. The method, then: as §1, §2

T1 sequence (Q0PW92 entry or part of it): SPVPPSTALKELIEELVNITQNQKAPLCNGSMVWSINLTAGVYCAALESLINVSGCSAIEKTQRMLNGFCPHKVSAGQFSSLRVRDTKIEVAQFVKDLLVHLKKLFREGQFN
T2 sequence (P35225 35-146 limits assumed): as the sequence (Q0PW92 entry or part of it) above, with S1G, K10R, V42M, N67S, R83H, V100L counted along it
Sequence of rhesus IL-13 (Q864V6 19-132 limits assumed): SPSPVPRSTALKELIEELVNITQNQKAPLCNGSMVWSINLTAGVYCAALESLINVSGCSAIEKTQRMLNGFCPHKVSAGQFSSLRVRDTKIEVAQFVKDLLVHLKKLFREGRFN
T6 sequence (A2V9Z4 25-608): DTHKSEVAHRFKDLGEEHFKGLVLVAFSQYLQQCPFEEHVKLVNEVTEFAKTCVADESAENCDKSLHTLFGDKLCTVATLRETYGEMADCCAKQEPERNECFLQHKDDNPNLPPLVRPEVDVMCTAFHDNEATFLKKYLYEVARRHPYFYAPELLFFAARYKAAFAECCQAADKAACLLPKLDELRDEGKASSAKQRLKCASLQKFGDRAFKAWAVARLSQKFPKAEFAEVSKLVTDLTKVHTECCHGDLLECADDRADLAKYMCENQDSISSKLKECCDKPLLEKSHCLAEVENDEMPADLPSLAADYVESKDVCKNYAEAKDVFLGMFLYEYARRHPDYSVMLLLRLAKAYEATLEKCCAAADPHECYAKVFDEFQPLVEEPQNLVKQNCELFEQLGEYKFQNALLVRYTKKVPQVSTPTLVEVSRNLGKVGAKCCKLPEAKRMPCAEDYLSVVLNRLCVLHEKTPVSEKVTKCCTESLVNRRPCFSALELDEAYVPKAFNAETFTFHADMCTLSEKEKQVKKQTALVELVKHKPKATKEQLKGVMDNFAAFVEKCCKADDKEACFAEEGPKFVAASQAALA

B1: ISVD construct F027100187 (other)
chain: DVQLVESGGGVVQPGGSLRLSCAASRSIGRYDRMGWYRHRPGEPRELVATITGGSSINYGDSVKGRFTISIDNSKNTVYLQMNSLRPEDTALYYCNFNKYQISRDTWGQGTLVTVSSGGGGSGGGSEVQLVESGGGVVQPGGSLRLSCAASGRTFSSYRMGWFRQAPGKEREFVAALSGDGYSTYTANSVKGRFTISRDNSKNTVYLQMNSLRPEDTALYYCAAKLQYVSGWSYDYPYWGQGTLVTVSSGGGGSGGGSEVQLVESGGGVVQPGGSLRLSCAASGFTFRSFGMSWVRQAPGKGPEWVSSISGSGSDTLYADSVKGRFTISRDNSKNTLYLQMNSLRPEDTALYYCTIGGSLSRSSQGTLVTVSSGGGGSGGGSEVQLVESGGGVVQPGGSLRLSCAASGFTFNNYAMKWVRQAPGKGLEWVSSITTGGGSTDYADSVKGRFTISRDNSKNTLYLQMNSLRPEDTALYYCANVPFGYYSEHFSGLSFDYRGQGTLVTVSSA
notes: Tetravalent, trispecific single-chain construct of four VHH (ISVD) domains: one against OX40L, two against IL-13, one against serum albumin; also called F0271000187; F27100187
B1: the “eotaxin release assay (IC50, pM)” value with rhesus IL-13 amounted to 858 pM; with cyno IL-13 [1], 1940 pM; with human IL-13 [2], 259 pM. Further, the Kd – broadly, the concentration at which binding is half-saturated – in the experiment with human serum albumin is 8.3 nM; with cyno IL-13 [5], 0.0059 nM; with cyno serum albumin it was 10.2 nM; with cyno OX40L, 0.196 nM. For the same molecule, the EC50 (commonly the concentration giving half of the maximal effect) stood at 0.0363 nM in experiment [3] and 0.0235 nM in [6]. Also, in the experiment with human IL-13 [4], the EC50 (read off the curve) (in general, the concentration giving half of the maximal effect) is roughly 20 nM. The “PBMC activity assay IC50” value is 14 nM in experiment [7] and 1.9 nM in [8].
